# Test results taken from US20040235117A1.
# Where “and” joins values, the source holds several entries; their conditions need not be identical. Identical values can stand only once.
# B1: Fas:COMP (receptor, not shown: small tags and cut ends)
# chain: QVTDINSKGLELRKTVTTVETQNLEGLHHDGQFCHKPCPPGERKARDCTVNGDEPDCVPCQEGKEYTDKAHFSSKCRRCRLCDEGHGLEVEINCTRTQNTKCRCKPNFFCNSTVCEHCDPCTKCEHGIIKECTLTSNTKCKEEGSPQPQPKPQPKPEPEGGCCQMLRELQETNAALQDVRELLRHRVKEITFLKNTVMECDACGMQPARTPGGGS
# modifications: Assembles as a disulphide-linked pentamer through the COMP coiled coil (about 400 kDa by gel filtration). N-glycosylated.
# What was measured:
# [1] = molecular target: fusion protein (1), FasL trimer (flag sequence, linker, hFasL AA 139 to 281) (human) (UniProt P48023); assay: cell-based or functional assay
# [2] = molecular target: fusion protein (3), super FasL (human) (UniProt P48023); assay: cell-based or functional assay
# [3] = molecular target: fusion protein (5), TRAIL-ACRP30 (murine; human) (UniProt Q60994); assay: cell-based or functional assay
# Sequence of UniProt Q60994 (Q60994 other isoform, or with tags, fused parts or gaps limits assumed): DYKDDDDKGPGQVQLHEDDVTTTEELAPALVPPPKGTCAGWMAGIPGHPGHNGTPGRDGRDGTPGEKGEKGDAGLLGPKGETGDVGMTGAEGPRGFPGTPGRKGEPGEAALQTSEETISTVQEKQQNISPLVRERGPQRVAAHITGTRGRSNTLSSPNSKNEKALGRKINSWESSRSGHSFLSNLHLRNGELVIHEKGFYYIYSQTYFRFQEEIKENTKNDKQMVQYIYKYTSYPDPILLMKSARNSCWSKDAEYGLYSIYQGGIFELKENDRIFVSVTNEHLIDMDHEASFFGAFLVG
# [4] = molecular target: TRAIL trimer (flag sequence, linker, hTRAIL AA 95 to 281) (human) (UniProt P50591); assay: BIAcore, 7 ul of 2.5 ug/ml Flag-TRAIL over immobilised M2 antibody
# Sequence of UniProt P50591 (P50591 other isoform, or with tags, fused parts or gaps limits assumed): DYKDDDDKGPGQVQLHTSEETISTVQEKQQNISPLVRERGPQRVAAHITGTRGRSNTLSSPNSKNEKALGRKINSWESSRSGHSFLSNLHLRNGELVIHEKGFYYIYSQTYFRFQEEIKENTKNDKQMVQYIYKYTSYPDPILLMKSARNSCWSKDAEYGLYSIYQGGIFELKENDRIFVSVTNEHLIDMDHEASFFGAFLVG
# [5] = molecular target: fusion protein (1), FasL trimer (flag sequence, linker, hFasL AA 139 to 281) (human) (UniProt P48023); assay: BIAcore, 7 ul of 2.5 ug/ml Flag-FasL over immobilised M2 antibody
# [6] = molecular target: TNF receptor 2 (TNF-R2) on CT6 cells (mouse (on CT6 cells of mice)) (UniProt P25119); assay: cell-based or functional assay
# Sequence of UniProt P25119 (P25119 23-474): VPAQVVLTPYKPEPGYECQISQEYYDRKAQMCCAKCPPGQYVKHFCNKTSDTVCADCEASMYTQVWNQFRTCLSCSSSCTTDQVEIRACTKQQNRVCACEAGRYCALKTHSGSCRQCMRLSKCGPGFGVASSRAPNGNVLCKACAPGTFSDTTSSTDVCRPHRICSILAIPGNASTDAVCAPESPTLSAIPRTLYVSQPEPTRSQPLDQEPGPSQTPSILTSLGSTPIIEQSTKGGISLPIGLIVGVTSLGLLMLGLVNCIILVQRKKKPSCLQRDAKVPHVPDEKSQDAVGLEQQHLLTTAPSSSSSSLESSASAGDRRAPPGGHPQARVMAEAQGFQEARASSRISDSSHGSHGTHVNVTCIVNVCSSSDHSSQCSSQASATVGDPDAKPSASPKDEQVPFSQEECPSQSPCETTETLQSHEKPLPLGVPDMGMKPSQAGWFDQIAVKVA
# [7] = molecular target: Flag-CD40L (AA 116 to 261) (human) (UniProt P29965); assay: competitive ELISA, CD40:Fc coated on the plate, sCD40L at constant concentration, protein A 1 ug/ml
# Sequence of UniProt P29965 (P29965 other isoform, or with tags, fused parts or gaps limits assumed): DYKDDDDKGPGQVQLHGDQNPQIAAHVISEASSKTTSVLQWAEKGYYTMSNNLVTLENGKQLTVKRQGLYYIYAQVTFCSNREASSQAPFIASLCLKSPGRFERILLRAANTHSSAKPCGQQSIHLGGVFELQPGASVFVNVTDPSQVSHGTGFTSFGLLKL
# [8] = molecular target: Flag-CD40L (AA 116 to 261) (human) (UniProt P29965); assay: competitive ELISA, CD40:Fc coated on the plate, sCD40L at constant concentration
# [9] = molecular target: fusion protein (1), FasL trimer (flag sequence, linker, hFasL AA 139 to 281) (human) (UniProt P48023); assay: cell-based or functional assay; remark: listed apart in the source
# [10] = molecular target: fusion protein (1), FasL trimer (flag sequence, linker, hFasL AA 139 to 281) (human) (UniProt P48023); assay: BIAcore, Flag-FasL captured on an M2-modified CM5 chip, receptor fusion protein injected
# [11] = molecular target: fusion protein (1), FasL trimer (flag sequence, linker, hFasL AA 139 to 281) (human) (UniProt P48023); assay: BIAcore, Flag-FasL captured on an M2-modified CM5 chip; reference Fas:Fc
molecule,measurement,setting,value
Fas:CMP (from UniProt P25445 1-170) (receptor),"inhibition of sFasL-mediated lysis, fold less effective than Fas:COMP",[1],5 fold
anti-flag M2 monoclonal antibody,"cytotoxic assay on A20 and Jurkat cells, fold increase of apoptotic activity",[2],2 fold and > 1.5 fold
same,"cytotoxic assay on Jurkat cells, fold increase of apoptosis-inducing activity",[3],> 10 fold
same,units bound (BIAcore response),[4],100 to 150 units
same,units bound (BIAcore response),[5],100 to 150 units
"fusion protein (6), TNFα-ACRP30 (from UniProt Q60994 18-111; P06804 77-235) (ligand)",3[H]-thymidin incorporation into CT6 cells (cell proliferation),[6],5 ng/mL
CD40:Fc/PA (from UniProt P25942 21-193) (Fc fusion),fold increase in the affinity (against CD40:Fc),[7],8 fold
CD40:COMP (receptor),fold increase in the affinity (against CD40:Fc),[8],30 fold
B1,"inhibitory activity in cytotoxicity tests on cell lines, fold over Fas:Fc",[9],10 to 20 fold
same,Kd,[10],0.77 nM
same,fold lower dissociation constant than Fas:Fc,[11],8 to 9 fold
